The text below walks through data of PMC4702141 (Scientific Reports, 2016).

First the molecules themselves.
B3: recombinant BMPRIB-Fc (Fc fusion, mouse, UniProt P36898 14-126, looked up)
chain: KKEDGESTAPTPRPKILRCKCHHHCPEDSVNNICSTDGYCFTMIEEDDSGMPVVTSGCLGLEGSDFQCRDTPIPHQRRSIECCTERNECNKDLHPTLPPLKDRDFVDGPIHHK
notes: BMPRIB (ALK6), mouse, extracellular domain; cDNA fragment NM_007560.3, 4-378 bp, from FANTOM cDNA clones (RIKEN); also called ALK6; source: 293F cells, transfected, purified from culture supernatant (Protein A columns)
B4: BMPRIA-Fc (Fc fusion)
chain: QNLDSMLHGTGMKSDSDQKKSENGVTLAPEDTLPFLKCYCSGHCPDDAINNTCITNGHCFAIIEEDDQGETTLASGCMKYEGSDFQCKDSPKAQLRRTIECCRTNLCNQYLQPTLPPVVIGPFFDGSIR
modifications: Extracellular domain; C-terminal human IgG Fc (left out) makes a disulfide-linked dimer. The protein was bought from R&D Systems with species and limits not given; human is taken as the likeliest …
B5: mouse GDF-6 (ligand, UniProt P43028 335-454, looked up)
chain: TAFASRHGKRHGKKSRLRCSRKPLHVNFKELGWDDWIIAPLEYEAYHCEGVCDFPLRSHLEPTNHAIIQTLMNSMDPGSTPPSCCVPTKLTPISILYIDAGNNVVYKQYEDMVVESCGCR
notes: Growth differentiation factor 6, mouse, recombinant; source: bought: R&D Systems
B6: mouse GDF-5 (ligand, UniProt P43027 376-495, looked up)
chain: APLANRQGKRPSKNLKARCSRKALHVNFKDMGWDDWIIAPLEYEAFHCEGLCEFPLRSHLEPTNHAVIQTLMNSMDPESTPPTCCVPTRLSPISILFIDSANNVVYKQYEDMVVESCGCR
notes: Growth differentiation factor 5, mouse, recombinant; source: bought: R&D Systems

Common to all, as to experiment: SPR; BMPRIA-Fc or BMPRIB-Fc captured with an anti-human Fc IgG capture kit; ligands injected at 25 °C, 30 μL/min; HBS-EP (+) running buffer; single-cycle kinetics, 1:1 binding model, Biacore T100; average of 2 or 3 independent analyses
The target of one experiment is T1, BMPRIA-Fc, P36895.
T1 chain: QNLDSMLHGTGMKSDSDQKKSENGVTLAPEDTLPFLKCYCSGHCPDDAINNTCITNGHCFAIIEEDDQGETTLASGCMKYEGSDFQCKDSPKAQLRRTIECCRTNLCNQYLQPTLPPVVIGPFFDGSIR
The note with it: remark: other sources report otherwise.

In the experiment “recombinant BMPRIB-Fc” the target is B3. The following applies: both partners purified.
Another experiment has as its target T2, human BMP6 (human, UniProt P22004 375-513).
T2 construct: Bone morphogenetic protein 6, human, recombinant; source: bought: R&D Systems
T2 sequence (looked up): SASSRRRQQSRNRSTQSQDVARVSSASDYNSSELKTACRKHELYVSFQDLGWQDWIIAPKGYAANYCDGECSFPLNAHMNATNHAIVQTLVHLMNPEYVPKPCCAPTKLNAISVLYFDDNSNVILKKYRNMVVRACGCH
The note with it: both partners purified.

For the next experiment, the target named is T3, human BMP7 (human, UniProt P18075 293-431).
T3 construct: Bone morphogenetic protein 7, human, recombinant; source: bought: R&D Systems
T3 sequence (looked up): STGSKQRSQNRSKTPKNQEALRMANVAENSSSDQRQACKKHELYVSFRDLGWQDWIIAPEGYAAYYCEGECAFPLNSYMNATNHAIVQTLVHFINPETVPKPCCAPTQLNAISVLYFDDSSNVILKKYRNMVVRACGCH
The note with it: both partners purified.

The target in the next experiment is T4, human BMP2 (human, UniProt P12643 283-396).
T4 construct: Bone morphogenetic protein 2, human, recombinant; source: bought: R&D Systems
The following applies: both partners purified.

For another experiment, the target named is T5, mouse GDF-7 (mouse, UniProt P43029 316-461).
T5 construct: Growth differentiation factor 7, mouse, recombinant; source: bought: R&D Systems
T5 sequence (looked up): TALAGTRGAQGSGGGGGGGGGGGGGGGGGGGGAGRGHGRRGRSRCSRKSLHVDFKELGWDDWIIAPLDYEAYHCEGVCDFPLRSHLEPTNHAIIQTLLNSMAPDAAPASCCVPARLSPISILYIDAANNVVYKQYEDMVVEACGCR
The note with it: both partners purified.

In another experiment the target is T6, human BMP4 (human, UniProt P12644 293-408).
T6 construct: Bone morphogenetic protein 4, human, recombinant; source: bought: R&D Systems
T6 sequence (looked up): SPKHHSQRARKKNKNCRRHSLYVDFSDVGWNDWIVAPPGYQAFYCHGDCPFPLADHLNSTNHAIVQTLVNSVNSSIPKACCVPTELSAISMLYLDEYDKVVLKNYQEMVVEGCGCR
The following applies: both partners purified.

In the experiment “mouse GDF-5” the target is B6. The note with it: both partners purified.
The experiment “mouse GDF-6” deals with B5. The following applies: both partners purified.
The target of the experiment “BMPRIA-Fc” is B4. The following applies: both partners purified.

T4 sequence (P12643 283-396): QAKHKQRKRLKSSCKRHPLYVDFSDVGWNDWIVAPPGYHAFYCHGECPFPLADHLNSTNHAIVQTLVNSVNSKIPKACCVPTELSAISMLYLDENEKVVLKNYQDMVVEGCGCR

B1: human BMP7, P18075 293-431 (ligand)
chain: STGSKQRSQNRSKTPKNQEALRMANVAENSSSDQRQACKKHELYVSFRDLGWQDWIIAPEGYAAYYCEGECAFPLNSYMNATNHAIVQTLVHFINPETVPKPCCAPTQLNAISVLYFDDSSNVILKKYRNMVVRACGCH
modifications: here or on the partner: Extracellular domain; C-terminal human IgG Fc (left out) makes a disulfide-linked dimer. The protein was bought from R&D Systems with species and limits not given; human is taken as the likeliest pr
Turning to B1, the dissociation constant Kd with BMPRIA-Fc, P36895 came out at 1.95 nM.

B2: human BMP10 (ligand, UniProt O95393 317-424, looked up)
chain: NAKGNYCKRTPLYIDFKEIGWDSWIIAPPGYEAYECRGVCNYPLAEHLTPTKHAIIQALVHLKNSQKASKACCVPTKLEPISILYLDKGVVTYKFKYEGMAVSECGCR
notes: Bone morphogenetic protein 10, human, recombinant; source: bought: R&D Systems
As to B2, the Kd with recombinant BMPRIB-Fc stood at 0.00945 nM.

Regarding B3, the Kd was determined as 0.00035 nM with human BMP6; 0.268 nM in the experiment with human BMP7; 0.00248 nM with human BMP2; 0.209 nM with mouse GDF-7; 0.221 nM in the experiment with human BMP4; 0.129 nM with mouse GDF-5. In addition, binding with mouse GDF-6 was put at a Kd of 0.159 nM.

Take B4: the equilibrium dissociation constant (Kd) in the experiment with human BMP6 came to 0.0792 nM; in the experiment with mouse GDF-7 it was 0.432 nM.

B5 showed a Kd in the experiment with BMPRIA-Fc of 0.48 nM.

Consider B6, for which binding with BMPRIA-Fc was characterised by a dissociation constant (Kd) of 1.63 nM.
